Assay in all cases: EMSA
(A gel shift assay detects complexes by their altered migration in electrophoresis.)

Data set [1] addresses NF90ΔC381 (DZF);NF45ΔN28 (DZF) (mouse;mouse, UniProt Q9Z1X4;Q9CXY6 1-380;29-390, |).
The target in data set [2] is NF90ΔC591 (DZF + both dsRBDs);NF45 (partner in long complex) (mouse;mouse, UniProt Q9Z1X4;Q9CXY6 1-590;29-390, |).
The target in a further data set is T1, NF90 dsRBDs (mouse, UniProt Q9Z1X4 380-590).
T1 sequence: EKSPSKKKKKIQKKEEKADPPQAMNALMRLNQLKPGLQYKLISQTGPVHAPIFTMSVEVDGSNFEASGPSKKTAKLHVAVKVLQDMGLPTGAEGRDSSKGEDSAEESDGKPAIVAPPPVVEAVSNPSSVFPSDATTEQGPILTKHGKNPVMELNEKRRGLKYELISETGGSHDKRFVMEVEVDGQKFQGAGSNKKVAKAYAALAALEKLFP

Sequence of NF90ΔC591 (DZF + both dsRBDs);NF45 (partner in long complex) (Q9CXY6 29-390, stated change not applied, one chain of several): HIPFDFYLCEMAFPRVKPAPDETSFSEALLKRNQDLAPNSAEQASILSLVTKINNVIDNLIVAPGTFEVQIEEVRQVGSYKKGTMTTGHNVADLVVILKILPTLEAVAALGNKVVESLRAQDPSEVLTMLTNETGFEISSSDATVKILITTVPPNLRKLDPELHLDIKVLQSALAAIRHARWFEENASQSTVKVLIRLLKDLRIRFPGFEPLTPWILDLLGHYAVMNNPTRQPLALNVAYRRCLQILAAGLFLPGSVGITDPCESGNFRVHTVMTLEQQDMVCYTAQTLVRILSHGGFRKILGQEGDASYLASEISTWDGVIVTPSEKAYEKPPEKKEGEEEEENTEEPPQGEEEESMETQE

B1: ss17-A10 (ssRNA)
RNA: CCCCACCACCAUCACUUAAAAAAAAAA
As to B1, the binding result in data set [1] was “no binding”.

B2: ss17-A10/Css17-U10 dsRNA (dsRNA)
RNA 1: CCCCACCACCAUCACUUAAAAAAAAAA
RNA 2: UUUUUUUUUUAAGUGAUGGUGGUGGGG
Regarding B2, the binding result in data set [2] is on record as “binds”; with NF90 dsRBDs, “binds”; in data set [1], “no binding”.

These data come from publication PMC3467086.
